Holding throughout (experiment): SPR (Biacore); KD of SG1 divided by KD of the variant for this FcgR;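 note: relative to parent M103205H795-SG1 carrying the SG1 human heavy chain constant region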
(SPR reads the build-up and loss of mass on a sensor chip optically.)

The target of assay [1] is T1, cynomolgus monkey FcγRIIb extracellular domain with C-terminal His-tag (cynomolgus monkey).
T1 construct: Expressed in FreeStyle 293 cells and purified; also called cyno FcγRIIb; cynoFcγRIIb; not shown: C-terminal His-tag
T1 chain: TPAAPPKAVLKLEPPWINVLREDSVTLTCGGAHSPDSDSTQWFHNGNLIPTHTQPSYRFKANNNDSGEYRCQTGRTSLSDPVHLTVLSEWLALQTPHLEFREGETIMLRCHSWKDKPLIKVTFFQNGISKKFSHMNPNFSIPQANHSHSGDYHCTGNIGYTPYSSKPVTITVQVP
The procedure: (§1) Regarding such interactions, KD values were calculated using the following 1:1 binding model described in BIACORE® T100 Software Handbook BR1006-48 Edition AE.
(§2) The behavior of interacting molecules according to the 1:1 binding model on BIACORE® can be described by Equation 1: Req=C·R max/(KD+C)+RI, wherein, Req is a plot of steady-state binding levels to analyte concentration. C is concentration, RI is bulk refractive index contribution in the sample, and Rmax is analyte binding capacity of the surface. When this equation is rearranged, KD can be expressed as Equation 2: KD=C·Rmax/(Req−RI)−C. KD can be calculated by substituting the values of Rmax, RI, and C into Equation 1 or Equation 2. From the current measurement conditions, RI=0, C=2 μmol/L can be used.
(§3) The variants were expressed using M103202L889-SK1 as the light chain and their affinity was analyzed.

For assay [2], the target named is T2, cynomolgus monkey FcγRIIa1 extracellular domain with C-terminal His-tag (cynomolgus monkey).
T2 construct: Expressed in FreeStyle 293 cells and purified; also called cyno FcγRIIa1; cynoFcgRIIa1; not shown: C-terminal His-tag
T2 chain: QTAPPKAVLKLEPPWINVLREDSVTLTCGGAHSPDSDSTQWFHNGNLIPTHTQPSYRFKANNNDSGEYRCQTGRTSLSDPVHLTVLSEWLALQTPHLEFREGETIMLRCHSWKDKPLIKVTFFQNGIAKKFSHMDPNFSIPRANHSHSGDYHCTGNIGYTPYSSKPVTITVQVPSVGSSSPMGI
The procedure: as §1, §2, §3

In assay [3] the target is T3, human FcγRIIaR extracellular domain with C-terminal His-tag (human, UniProt P12318 34-217).
T3 construct: Expressed in FreeStyle 293 cells and purified; also called human FcγRIIa (type R); FcgRIIaR; not shown: C-terminal His-tag
T3 chain: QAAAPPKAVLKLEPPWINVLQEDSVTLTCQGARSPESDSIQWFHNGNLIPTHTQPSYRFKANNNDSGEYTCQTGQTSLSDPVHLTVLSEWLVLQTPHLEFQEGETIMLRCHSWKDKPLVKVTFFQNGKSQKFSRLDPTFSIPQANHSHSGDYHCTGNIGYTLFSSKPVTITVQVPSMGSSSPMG
The procedure:
as §1, §2, §3

For assay [4], the target named is T4, human FcγRIIIaV extracellular domain with C-terminal His-tag (human, UniProt P08637 17-208).
T4 construct: Expressed in FreeStyle 293 cells and purified; also called FcgRIIIaV; not shown: C-terminal His-tag
The procedure:
as §1, §2, §3

The target of assay [5] is T5, human FcγRIIaH extracellular domain with C-terminal His-tag (human, UniProt P12318 34-217).
T5 construct: Expressed in FreeStyle 293 cells and purified; also called human FcγRIIa (type H); FcgRIIaH; not shown: C-terminal His-tag
T5 sequence: T3 chain with R134H
The procedure:
as §1, §2, §3

Assay [6] concerns the target T6, cynomolgus monkey FcγRIIIaS extracellular domain with C-terminal His-tag (cynomolgus monkey, UniProt Q8SPW2 21-206 at identity 1.00)).
T6 construct: Expressed in FreeStyle 293 cells and purified; also called cyno FcγRIIIaS; cynoFcγRIIIaS; not shown: C-terminal His-tag
T6 chain: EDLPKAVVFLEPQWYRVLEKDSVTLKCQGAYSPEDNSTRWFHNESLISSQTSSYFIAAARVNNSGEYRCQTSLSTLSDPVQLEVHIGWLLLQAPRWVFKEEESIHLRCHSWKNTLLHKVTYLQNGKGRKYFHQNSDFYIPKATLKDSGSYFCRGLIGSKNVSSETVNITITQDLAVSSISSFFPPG
As to the method: as §1, §2, §3

In assay [7] the target is T7, human FcγRIIb extracellular domain with C-terminal His-tag (human, UniProt P31994 43-217).
T7 construct: Expressed in FreeStyle 293 cells and purified; also called humanFcgRIIb; not shown: C-terminal His-tag
T7 sequence: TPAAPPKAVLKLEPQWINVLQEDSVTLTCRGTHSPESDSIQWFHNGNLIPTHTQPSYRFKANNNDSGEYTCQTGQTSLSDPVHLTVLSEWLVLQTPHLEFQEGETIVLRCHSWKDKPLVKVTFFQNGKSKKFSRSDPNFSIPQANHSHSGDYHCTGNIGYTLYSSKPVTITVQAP
As to the method:
as §1, §2, §3

The target in assay [8] is T8, cynomolgus monkey FcγRIIa2 extracellular domain with C-terminal His-tag (cynomolgus monkey).
T8 construct: Expressed in FreeStyle 293 cells and purified; also called cyno FcγRIIa2; cynoFcgRIIa2; not shown: C-terminal His-tag
T8 chain: T2 chain with P95T, T121A, I127K, A128S, K130N, D135N, R142Q
As to the method: as §1, §2, §3

For assay [9], the target named is T9, cynomolgus monkey FcγRIIa3 extracellular domain with C-terminal His-tag (cynomolgus monkey).
T9 construct: Expressed in FreeStyle 293 cells and purified; also called cyno FcγRIIa3; cynoFcgRIIa3; not shown: C-terminal His-tag
T9 chain: T2 chain with P95T, T121A, A128S, H133P, D135N
The procedure:
as §1, §2, §3

Where a chain is given by its changes, count along the chain named.

T4 sequence (P08637 17-208 F176V): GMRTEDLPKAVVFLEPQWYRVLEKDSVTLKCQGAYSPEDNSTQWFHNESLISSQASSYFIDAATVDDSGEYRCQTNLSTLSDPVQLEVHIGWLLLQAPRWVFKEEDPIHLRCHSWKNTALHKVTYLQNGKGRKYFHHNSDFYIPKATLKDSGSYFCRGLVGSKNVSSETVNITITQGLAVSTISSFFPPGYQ

B1: M103205H795-MY200 / M103202L889-SK1 (antibody, human IgG1, kappa)
heavy: QVTLKESGPVLVKPTETLTLTCTVSGIDLSHDDISWVRQAPGKGLEWVGIISYAGSTYYASWAKGRLTISKDTSKNQVVLTMTNMDPVDTATYYCARGVPAYSHGGDLWGQGTLVTVSSASTKGPSVFPLAPSSKSTSGGTAALGCLVKDYFPEPVTVSWNSGALTSGVHTFPAVLQSSGLYSLSSVVTVPSSSLGTQTYICNVNHKPSNTKVDKKVEPKSCDKTHTCPPCPAPELLNGPVVFLFPPKPKDTLMISRTPEVTCVVVDVSEEDPEVKFNWYVDGVEVHNAKTKPREEQYNSTYRVVSVLTVLHQDWLNGKEYKCKVSNKALPKPIEKTISKAKGQPREPQVYTLPPSREEMTKNQVSLTCLVKGFYPSDIAVEWESNGQPENNYKTTPPVLDSDGSFFLYSKLTVDKSRWQQGNVFSCSVMHEALHNHYTQKSLSLSP
light: DIVMTQSPATLSLSPGERATLSCTSSQSVYHANWLSWFQQKPGQPPKLLIYWASTLAYGVPSRFSGSGSGTDFTLTISSLQPEDAATYYCAGGYGGGRYAFGQGTKVEIKRTVAAPSVFIFPPSDEQLKSGTASVVCLLNNFYPREAKVQWKVDNALQSGNSQESVTEQDSKDSTYSLSSTLTLSKADYEKHKVYACEVTHQGLSSPVTKSFNRGEC
notes: Fc variant of M103205H795-SG1, expressed with M103202L889-SK1 as light chain
B1: the “KD fold (SG1 = 1)” value worked out at 1.6 fold in assay [1]; 1.9 fold in assay [2]; 0.4 fold in assay [3]; 0.05 fold in assay [4]; 0.4 fold in [5]; 0.08 fold in [6]. Further, the “KD fold (SG1 = 1)” value in assay [7] amounted to 3.3 fold; in assay [8], 3.4 fold; in [9] it was 3.4 fold.

B2: M103205H795-MY201 / M103202L889-SK1 (antibody, human IgG1, kappa)
heavy: B1 heavy with V241S, E270D
light: B1 light
notes: Fc variant of M103205H795-SG1, expressed with M103202L889-SK1 as light chain; also called MS1032LO06-MY201
As to B2, the “KD fold (SG1 = 1)” value in [1] was 4.3 fold; in assay [2] it was 2.3 fold; in assay [3], 0.6 fold; in [4], 0.05 fold; in [5], 0.8 fold; in [6], 0.06 fold. Also, the “KD fold (SG1 = 1)” value in assay [7] is 4.2 fold; in assay [8], 8.6 fold; in assay [9] it was 4.4 fold.

B3: M103205H795-MY205 / M103202L889-SK1 (antibody, human IgG1, kappa)
heavy: B1 heavy with V241S, E270D, Q297L
light: B1 light
notes: Fc variant of M103205H795-SG1, expressed with M103202L889-SK1 as light chain; also called MS1032LO06-MY205
For B3, the “KD fold (SG1 = 1)” value in assay [1] was 7.2 fold; in assay [2], 3.5 fold; in [3], 0.8 fold; in assay [4] it was 0.06 fold; in assay [5], 1.5 fold; in assay [6], 0.06 fold. The “KD fold (SG1 = 1)” value in [7] was 8 fold; in assay [8], 4.6 fold; in assay [9] it was 5.7 fold.

B4: M103205H795-MY204 / M103202L889-SK1 (antibody, human IgG1, kappa)
heavy: B1 heavy with Q297L
light: B1 light
notes: as for B1
For B4, the “KD fold (SG1 = 1)” value worked out at 3.2 fold in assay [1]; 2.5 fold in assay [2]; 0.4 fold in [3]; 0.07 fold in [4]; 0.5 fold in assay [5]; 0.1 fold in assay [6]. For the same molecule, the “KD fold (SG1 = 1)” value in assay [7] was 3.5 fold; in assay [8], 3.6 fold; in assay [9], 8.8 fold.

B5: M103205H795-MY207 / M103202L889-SK1 (antibody, human IgG1, kappa)
heavy: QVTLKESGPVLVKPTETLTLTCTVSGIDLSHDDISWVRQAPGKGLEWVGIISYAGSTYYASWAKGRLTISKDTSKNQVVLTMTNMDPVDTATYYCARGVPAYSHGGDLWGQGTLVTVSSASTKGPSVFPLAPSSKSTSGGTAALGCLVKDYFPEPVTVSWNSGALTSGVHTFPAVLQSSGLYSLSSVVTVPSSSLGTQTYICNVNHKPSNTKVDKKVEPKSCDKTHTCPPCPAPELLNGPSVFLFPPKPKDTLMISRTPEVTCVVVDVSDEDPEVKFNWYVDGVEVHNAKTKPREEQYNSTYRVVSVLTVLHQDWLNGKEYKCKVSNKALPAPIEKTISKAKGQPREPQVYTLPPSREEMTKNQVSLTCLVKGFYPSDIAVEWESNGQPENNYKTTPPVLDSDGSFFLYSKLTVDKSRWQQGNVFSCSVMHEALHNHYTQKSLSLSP
light: B1 light
notes: as for B1
On to B5, for which the “KD fold (SG1 = 1)” value in [1] came to 2.2 fold; in assay [2], 2.1 fold; in [3] it was 0.4 fold; in assay [4] it was 0.1 fold; in assay [5] it was 0.5 fold; in assay [6], 0.08 fold. The “KD fold (SG1 = 1)” value in [7] was found to be 2.9 fold; in assay [8] it was 8.6 fold; in [9], 2.5 fold.

B6: M103205H795-MY202 / M103202L889-SK1 (antibody, human IgG1, kappa)
heavy: B1 heavy with E270D
light: B1 light
notes: as for B1
With B6, the “KD fold (SG1 = 1)” value is 3.9 fold in assay [1]; 5.3 fold in assay [2]; 0.9 fold in assay [3]; 0.09 fold in assay [4]; 0.6 fold in assay [5]; 0.09 fold in assay [6]. In addition, the “KD fold (SG1 = 1)” value in assay [7] was 6.5 fold; in assay [8], 8 fold; in assay [9], 7.7 fold.

B7: M103205H795-MY206 / M103202L889-SK1 (antibody, human IgG1, kappa)
heavy: B1 heavy with E270D, Q297L
light: B1 light
notes: as for B1
B7: the “KD fold (SG1 = 1)” value in assay [1] was determined as 4 fold; in assay [2] it was 4 fold; in assay [3], 0.8 fold; in [4] it was 0.1 fold; in assay [5], 0.7 fold; in [6], 0.11 fold. Besides, the “KD fold (SG1 = 1)” value was determined as 5.1 fold in [7], 6.5 fold in [8] and 5.7 fold in [9].

These data come from US20200317768A1 (published 2020).
